Assay results reported in patent publication US20090253622A1, “USE OF TLR3 AGONISTS FOR THE TREATMENT OF NEURODEGENERATIVE DISORDERS” (Nederlandse Organisatie voor toegepast - …, priority 2006, published 2009).
“Also recorded” adds a separate entry of the source.

Legend:
[1] = tested on: human adult astrocytes; assay: cDNA array profiling of cytokine, chemokine and growth factor genes in human adult astrocytes; format: cell-based
Experimental: Adult human astrocytes from post-mortem subcortical white matter samples were isolated and cultured as previously described (Bsibsi et al., J Neuropath Exp Neurol 61:1013-1021 [2002]). […] When indicated astrocytes were stimulated with 50 μg/mL poly I:C (Amersham Pharmacia Biotech, Piscataway, N.J.) or 200 ng/mL LPS (Sigma-Aldrich, Steinheim, Germany) to activate TLR3 and TLR4, respectively. […] It should be noted that contaminants in the commercial LPS preparation could possibly lead to some level of TLR2 activation in addition to TLR4 by the LPS preparation used but not of TLR3. When stimulated with cytokines, astrocytes were supplied with TNF-α, IFN-γ, IL-1β (each at 500 U/mL), IL-4 (at 250 U/mL), IL-6 (at 200 U/mL), IL-12 (at 50 ng/mL), IL-10 (at 20 ng/mL) and TGF-β (at 12.5 ng/mL) (PeproTech, Rocky Hill, N.Y.). […] Endothelial cells (UVEC) were isolated from umbillical cords and cultured on gelatin-coated dishes in M199 supplemented with 20 nM HEPES, 10% human serum, 10% heat-inactivated NBCS, 150 mg/mL ECGF, 5 U/mL heparin, 100 IU/mL penicillin and […] streptomycin.
Analysis of the mRNA profile of astrocytes was performed by hybrid selection of ^32P-labeled cDNA on Clontech human cytokine/chemokine Atlas® arrays as previous described (Meeuwsen et al., Glia 43:243-253 [2003]). Hybridization signals for each of the 268 cytokine, chemokine and growth factor (receptor) genes were calculated as the mean of duplicate measurements, corrected for background intensity and quantified using software provided by the manufacturer. Relative expression was calculated by dividing these hybridization signals by the mean signal for all nine housekeeping reference genes on the corresponding array.
Gene profiling was performed using astrocytes from four different control donors.
Astrocytes were isolated from post mortem human brain tissue samples and cultured under conditions as described elsewhere in this application. One part of the culture was stimulated with 50 μg/ml stathmin, the second with 50 μg/ml poly I:C and a third was left untreated to served as a reference control. Following another 48 h RNA was isolated from each culture and ^32P-labeled cDNA was prepared by reverse transcription. Subsequent hybrid selection of these ^32P-labeled cDNA samples was performed on Clontech Atlas® arrays containing selective probes for 268 cytokines, chemokines and growth factors, and various receptors for these mediators. All hybridization signals were calculated as the mean of duplicate measurements, corrected for background intensity and quantified using software provided by the manufacturer. Relative signal strength was next calculated by dividing these averaged hybridization signals by the mean signal for all nine housekeeping reference genes that were also present on each array as a reference.

[2] = biological target: T1, TLR2 (Homo sapiens, UniProt O60603); assay: HEK293 transfectant cells, TLR2 activation; format: cell-based; conditions: at levels of at least 50 μg/mL
T1 construct: expressed in transfected cells; host or cells: HEK293
T1 sequence (O60603 21-784, species assumed): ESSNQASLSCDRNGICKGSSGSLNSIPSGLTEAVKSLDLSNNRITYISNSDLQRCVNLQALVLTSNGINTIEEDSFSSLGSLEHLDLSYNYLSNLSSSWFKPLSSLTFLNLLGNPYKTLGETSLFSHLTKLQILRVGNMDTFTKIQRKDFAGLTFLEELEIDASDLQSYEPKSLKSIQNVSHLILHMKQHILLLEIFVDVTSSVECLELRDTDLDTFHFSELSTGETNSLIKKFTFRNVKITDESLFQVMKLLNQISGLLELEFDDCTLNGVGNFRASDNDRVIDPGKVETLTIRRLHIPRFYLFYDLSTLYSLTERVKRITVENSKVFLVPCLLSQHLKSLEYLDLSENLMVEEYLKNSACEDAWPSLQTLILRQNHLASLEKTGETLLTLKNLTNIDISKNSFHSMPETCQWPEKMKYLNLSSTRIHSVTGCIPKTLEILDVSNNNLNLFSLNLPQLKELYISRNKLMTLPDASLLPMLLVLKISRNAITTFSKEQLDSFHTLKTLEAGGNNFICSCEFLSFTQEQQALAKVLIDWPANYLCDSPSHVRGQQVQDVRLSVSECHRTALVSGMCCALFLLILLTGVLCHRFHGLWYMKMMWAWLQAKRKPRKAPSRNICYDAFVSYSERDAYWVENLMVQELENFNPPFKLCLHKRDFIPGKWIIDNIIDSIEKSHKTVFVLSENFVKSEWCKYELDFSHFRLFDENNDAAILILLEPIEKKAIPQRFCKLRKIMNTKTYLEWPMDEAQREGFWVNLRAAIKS
Experimental: (§1) Additional control experiments using murine astrocytes or transfected HEK293 cells were performed essentially as described previously by several other research groups.

[3] = biological target: T2, TLR4 (Homo sapiens, UniProt O00206+Q9Y6Y9); assay: HEK293 transfectant cells, TLR4 activation; format: cell-based; conditions: at levels of at least 50 μg/mL
T2 construct: expressed in transfected cells; host or cells: HEK293
T2 sequence (O00206 24-839, species assumed): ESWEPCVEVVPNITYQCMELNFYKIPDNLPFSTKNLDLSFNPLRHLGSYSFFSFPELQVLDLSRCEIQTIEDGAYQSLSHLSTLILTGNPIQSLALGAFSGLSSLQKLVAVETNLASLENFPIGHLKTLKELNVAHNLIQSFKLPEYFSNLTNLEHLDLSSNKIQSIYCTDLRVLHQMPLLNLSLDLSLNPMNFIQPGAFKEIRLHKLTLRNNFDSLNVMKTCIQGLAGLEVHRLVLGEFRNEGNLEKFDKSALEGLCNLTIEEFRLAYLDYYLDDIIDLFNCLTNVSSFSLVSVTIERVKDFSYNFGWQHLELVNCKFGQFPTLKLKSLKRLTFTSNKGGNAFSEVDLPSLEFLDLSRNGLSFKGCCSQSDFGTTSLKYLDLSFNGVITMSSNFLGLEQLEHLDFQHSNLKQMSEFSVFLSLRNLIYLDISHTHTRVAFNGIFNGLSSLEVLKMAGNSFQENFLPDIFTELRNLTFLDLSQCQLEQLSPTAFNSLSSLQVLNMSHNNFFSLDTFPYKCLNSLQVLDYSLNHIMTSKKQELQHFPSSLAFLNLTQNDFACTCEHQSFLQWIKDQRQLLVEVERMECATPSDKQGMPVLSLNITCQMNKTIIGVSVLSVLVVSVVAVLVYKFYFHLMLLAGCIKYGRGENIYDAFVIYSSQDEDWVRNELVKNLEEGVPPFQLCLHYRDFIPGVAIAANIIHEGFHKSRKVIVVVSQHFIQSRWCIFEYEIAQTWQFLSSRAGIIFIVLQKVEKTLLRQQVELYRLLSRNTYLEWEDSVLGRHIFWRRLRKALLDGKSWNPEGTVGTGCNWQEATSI
T2 sequence (Q9Y6Y9 17-160 limits assumed, species assumed): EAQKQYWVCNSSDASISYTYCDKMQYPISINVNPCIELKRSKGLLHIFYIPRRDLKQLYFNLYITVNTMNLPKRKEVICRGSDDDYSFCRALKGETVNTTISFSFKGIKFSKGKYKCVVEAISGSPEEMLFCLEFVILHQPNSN
Experimental: as §1

[4] = tested on: astrocytes from TLR3-deficient mice; assay: IL-6 release by astrocytes from TLR3-deficient mice (ELISA); format: cell-based; conditions: TLR3-deficient mouse astrocytes, 48 h
Experimental: Astrocytes were cultured in poly L-lysine coated 96 well-flat-bottom plates at 1×10^4 cells per well in 100 l DMEM/HAM-F10 medium containing 10% FCS and antibiotic supplements for 24 h to obtain post-confluent cultures. Recombinant human stathmin was next added to astrocytes, and parallel control stimuli were performed with either poly I:C, an established TLR3 agonist, or ultrapure lipopolysaccharides, established TLR4 agonists. After addition of these stimuli astrocytes were incubated for another 48 h. Astrocyte culture supernatants were subsequently collected and using a commercial ELISA kit levels of IL-6 were determined, as a marker for TLR-mediated activation of murine astrocytes.

[5] = tested on: peripheral blood mononuclear cells (PBMC); assay: CXCL8 accumulation in culture of human PBMC; format: cell-based; conditions: 24 h, varying doses, two donors
Source text: (§2) Peripheral blood mononuclear cells (PBMC) were isolated from two healthy blood donors and from part of the cells, CD14^+ monocytes were isolated by positive selection using magnetic beads coated with an antibody against CD14. The purified CD14^+ monocytes were subsequently cultured for 5 days in the presence of IL-4 and granulocyte-macrophage colony stimulating factor (GM-CSF). These growth factors induce differentiation of monocytes into pre-dendritic cells (pre-DC) within this time frame. At this stage part of the pre-DC culture was stimulated with a mixture of IL-1β and TNF-α for another 2 days in culture, thus stimulating final maturation of the cells into plasmacytoid dendritic cells (DC).
(§3) Using this differentiation method, separate populations of PBMC, pre-DC and DC were generated and after washing of the cells to remove all previously used stimuli, cells were subsequently re-cultured in fresh medium and tested for their response to either poly I:C, stathmin or LPS. Accumulation of CXCL8 in the culture medium over a 24-h period was used as a measure for cellular activation.

[6] = tested on: pre-dendritic cells (pre-DC); assay: CXCL8 accumulation in culture of human pre-dendritic cells; format: cell-based; conditions: 24 h, varying doses, two donors
Source text: as §2, §3

[7] = tested on: plasmacytoid dendritic cells (DC); assay: CXCL8 accumulation in culture of human mature plasmacytoid dendritic cells; format: cell-based; conditions: 24 h, varying doses, two donors
Source text: as §2, §3

[8] = tested on: immature human plasmacytoid dendritic cells (pre-DC); assay: Antibody-array profiling of 40 cytokines and chemokines in human pre-DC supernatants; format: cell-based; conditions: 50 μg/ml, 48 h
Experimental: To examine the effects of stathmin on the maturation and cytokine production of immature human plasmacytoid dendritic cells (pre-DC), such pre-DC were generated from samples of peripheral blood mononuclear cells by maturation of purified CD14^+ monocytes using GM-CSF and IL-4. The cells were subsequently exposed to 50 μg/ml stathmin and after 48 h, culture supernatants were collected and the accumulation of 40 different cytokines ands chemokines was evaluated by antibody-array profiling using a commercially available antibody array.

[9] = tested on: human microglia; assay: CXCL8 accumulation in cultures of human microglia (ELISA); format: cell-based; conditions: microglia from gray or white matter, 24 h
Experimental: Using either gray matter samples or white matter samples of post mortem adult human brains collected within 9 h after death, several cultures of microglia were produced as previously described. Microglia were subsequently stimulated with different TLR agonists and after 24 h accumulation of CXCL8 in the culture medium was quantified using a commercial ELISA assay, as a measure of TLR-mediated activation.

[10] = purified recombinant protein in buffers similar to culture media; Steinmetz and colleagues; cited from earlier work

B1: stathmin: cytosolic phosphoprotein of 149 amino acids (SEQ ID NO: 1); purified recombinant human stathmin from a commercial source (protein)
chain: MASSDIQVKELEKRASGQAFELILSPRSKESVPEFPLSPPKKKDFSLEEIQKKLEAAEERRKSHEAEVLKQLAEKREHEKEVLQKAIEENNNFSKMAEEKITHKMEANKENREAQMAAKLERLREKDKHIEEVRKNKESKDPADETEAD
modifications: Human; (44)..(138) Stathmin-like alpha helix domain
notes: purified recombinant human stathmin from a commercial source
- change in expression of genes encoding immune mediators and growth factors ([1]; 50 μg/ml, 48 h): comprehensive and marked change in expression
- stathmin-induced mediators ([1]; astrocytes (TLR3 on the cell surface), qualitative summary): CNTF, LIF; also recorded: TSG-6, IL-9, IL10, IL-11, IL-5; also recorded: VEGF, VEGF-C, CXCL8; also recorded: CCL2, CCL3, CXCL9
- response of HEK293 transfectant cells via TLR2 [2]: does not contain any endotoxin contaminants that trigger responses
- response of HEK293 transfectant cells via TLR4 [3]: does not contain any endotoxin contaminants that trigger responses
- IL-6 release [4]: completely absent; also recorded: fully abrogated
- CXCL8 accumulation in the culture medium [5]: substantial increase in CXCL8 accumulation
- CXCL8 accumulation in the culture medium [6]: substantial increase in CXCL8 accumulation
- CXCL8 accumulation in the culture medium [7]: substantial increase in CXCL8 accumulation
- reduction of levels of the p70 subunit of IL-12 [8]: two-fold
- CXCL8 induction ratio ([8]; vs untreated control): > 1.5
- IL-10 induction ratio ([8]; vs untreated control): > 1.5
- MCP-1 induction ratio ([8]; vs untreated control): > 1.5
- p40 subunit of IL-12 induction ratio ([8]; vs untreated control): > 1.5
- CXCL8 accumulation in the culture medium [9]: enhanced CXCL8 accumulation
- fraction structurally ordered into alpha helix [10]: 40-60%
